{
  "source": "patent CN109678958A",
  "about": "(CHONGQING BIOMEAN TECH CO LTD, dated 2019)",
  "binders": {"B1": {"name": "人NT-proBNP特异性羊单链抗体scFv, displayed on phage (clone of the third round of panning) (scFv)", "scFv": "MALSQVRLQESGPSLVKPSQTLSLTCTVSGPSLTDYDVDWVRQAPGKALEWLGFINQGAPTGYDPALKSRLSITRDTSKSQVSLSLSSMTAEDTAVYYCARGAILGWGRGLLVTVSSQGSTSGSGKPGSGEGSTKGGQAVLTQPASVSGSPGQTVTISCTGTSGDIAGYNLVGWYQQLPNSAPKTLIYDVSTRRSGIPARFSGSKSGNTATLTISGLQAEDEADYYCSTSISANSVGFGSGTRLTVLGQPKSAPS", "notes": "The phage coat fusion partner is not described; also called 单克隆噬菌体"}},
  "biological_target": "T1, 重组人NT-proBNP (recombinant human N-terminal pro-brain natriuretic peptide, bought from 重庆探生科技有限公司) (human, UniProt P16860 27-102)",
  "T1 construct": "also called NT-proBNP校准品; 人脑钠肽原N端肽",
  "T1 sequence (looked up)": "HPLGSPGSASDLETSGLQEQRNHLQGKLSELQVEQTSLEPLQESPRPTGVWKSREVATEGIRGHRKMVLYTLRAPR",
  "test": "phage ELISA, NT-proBNP coated, HRP anti-phage antibody, A450",
  "data": [
    {"binder": "B1", "values": [
      {"measurement": "binding result", "value": "binds"}
    ]}
  ]
}
